Experiment: soluble on expression in E. coli; label from the status in PepcDB or PDB records

| Sequence | soluble on expression in E. coli |
| --- | --- |
| GTGTRFGTDLAKEAKKVHQTTRTVPAKRGTIYDRNGVPIAEDATSYNVYAVIDENYKSATGKILYVEKTQFNKVAEVFHKYLDMEESYVREQLSQPNLKQVSFGAKGNGITYANMMSIKKELEAAEVKGIDFTTSPNRSYPNGQFASSFIGLAQLHENEDGSKSLLGTSGMESSLNSILAGTDGIITYEKDRLGNIVPGTEQVSQRTMDGKDVYTTISSPLQSFMETQMDAFQEKVKGKYMTATLVSAKTGEILATTQRPTFDADTKEGITEDFVWRDILYQSNYEPGSTMKVMMLAAAIDNNTFPGGEVFNSSELKIADATIRDWDVNEGLTGGRMMTFSQGFAHSSNVGMTLLEQKMGDATWLDYLNRFKFGVPTRFGLTDEYAGQLPADNIVNIAQSSFGQGISVTQTQMIRAFTAIANDGVMLEPKFISAIYDPNDQTARKSQKEIVGNPVSKDAASLTRTNMVLVGTDPVYGTMYNHSTGKPTVTVPGQNVALKSGTAQIADEKNGGYLVGLTDYIFSAVSMSPAENPDFILYVTVQQPEHYSGIQLGEFANPILERASAMKDSLNLQTTAKALEQVSQQSPYPMPSVKDISPGDLAEELRRNLVQPIVVGTGTKIKNSSAEEGKNLAPNQQVLILSDKAEEVPDMYGWTKETAETLAKWLNIELEFQGSGSTVQKQDVRANTAIKDIKKITLTLGD | soluble |
| GAMGMESLFPNKGEIIRELLKDPLILKNDSKRSNGSELELDSSDLLQREAILANELNILDNLKTFLNLIKEVKTNLNILELENCYYSLQSLRKKMRNNAAYLKQSFNFQQSISTYVDTLHLELVSTLYKILTNGFWKITENSIQFTPTVEWGKDKVHIEYDTFMDFVAQQYFPKGSLDNQAWFILDMTSADSQEQVRAKLNTIMKEYMNLSRIVSMIKNSIFISGKEISYENEKNILVFSKSSSHGQHCVSTVLTSFEAVCDFMLDGLAFRDRKTLSYELGPLFNTEFTKFVKNNASIILESLDSPLKNLVSVINNKLTRLVAKSEVTNWTHSGKEIQDLLMNKQLYYNLLLDKVLESHISEIRS | soluble |
| MGHHHHHHSHMKNLFLTSSFKDVVPLFTEFESNLQGKTVTFIPTASTVEEVVFYVEAGKKALEKLGLFVVELDVATESLDHIAATLRKNDFIYVTGGNTFFLLQELKRTGADKLILEEIAAGKLYIGESAGAVITSPNIAYIQSMDSPKKAEQLTNYDALNLVDFCTLPHYNNIPFKKITQKIVADYTKSLKMHPISNHEAILVRDEEVITKLANGKTD | soluble |
| MAHHHHHHMLPHSVPTSPHQERDRPLEQMTDEELRRELVMLIRTNAILAEESAGLQADISALCEESVRFQQSTEIEEDKVTNQLLRRLQSEEVQKHRFHHQILCEEKARRKIMDQITQVRQQMELEKQLEQEQEVQRMELQRKLIDVVNKKIEVERQLLEERRVQLEALTTKLASIKEGSLAAKSKVDGAVGSRGTQGPSASSQQCQSGTANMTHESPAAAAAAAVAASSQPPPVKTETVPSSVDLPASDVAGDDTHGTIIRLEEQLNRLLEQHAAATQASATNESLCTELGRNLETIQQAASVDRARTLKLKEELQETKRRVAVLEQRAAVGTAYAASDDSSDLPTPSVSSLYDDKRRESLLNCHQRYPSSCVPPSCSASEAGEDTRSV | not soluble |
| SNAMSVIKIEKALKLDKVIFVDVRTEGEYEEDHILNAINMPLFKNNEHNEVGTIYKMQGKHEAIQKGFDYVSYKLKDIYLQAAELALNYDNIVIYCARGGMRSGSIVNLLSSLGVNVYQLEGGYKAYRNFVLEY | soluble |
| DSTFTNISLADDIDHSSRILYPRPKSLLPKMMNADMDVDAENQVELEEKTRLINQVLELQHTLEDLSARVDAVKEENLKLKSENQVLGQYIENLMSASSVFQTTDTKSKRK | not soluble |
| MGTGQRKDPSQQRSQETVARILSATGQVLRAKGYTGCSTNAIAEAAGISKGSVYQYFANKDEIIEVLIDKIMEETTATFGTQLEQAVAKGTFLKDAALQSQLLAVLDRYCDILGSLLNDAPHLALTAHRSVRIEERCRDLLRTYVTLNPSAIGPGVDLEALLLVLTVSYREVSLEYLRRDLRDRRNELATVLYDMTMGGLAGRVTRGV | not soluble |
| RDILEVLQDIHMETGETVAIATKNDIYLQYIQIIESVHALRFHVDENAIRPLTMSSNGWMLMSTMNDKAIDNTVRRANTITQKDGIRFEVDDMMARIRQVREQGYASAEHIPFVGGGTICVLLPMTIQGQPVTMGLGGALDRIKQNYDRYLELLLNGVQQLKKSDSFHQPIELAH | not soluble |
| MGSDKIHHHHHHAELAELFEVSVRTIYRDIETINRAGIPIVTSQGSGGGIGIMETYRLEREWLKEEELFAIASALQSVSSMYEPVSHSTAYQKIKHLIPEQSTQAFKHQTEKWFIDMTAWGHTEDQKTLREKISAAIDRLLTISFTYTSASGETLLRETEPYTLVCKAGHWYLYAYCLVRNDFRFFKLNRMKDLAILHQTFIRKDIQLDTLPWDKSWYQKDRLTELVILVQPSARQRIGEWFGYDVLHCCEEDEICQAVISLPEDQWLIGFLLQFGKDIEVLQPLHIRDKVKETIHHMQKIYET | not soluble |
| MGSDKIHHHHHHMKIALGPISYCWEKDKVYTFYEKAAQSQVHSVYLGETVCSRRREVKLADYLAIARQLNAAGKEVILSTMALIEAQSEIGELKRCVDNGEFIIEANDMAAVHYASEAKLPFICGPSINNYNRASLDILHKLGMVRFVMPYELSRDWLTKVIETQPEFDIEVMGHGYMPLAHSARCFTAKHFGLRKDNCDTLCKTHPKGMLAQTQENQPLLRLNGIQTQSAAYVDLISEIPNMKALGVSYFRVSPTALSSIELADELCITLTQQQVPQSKHSSESCNGYWFGEAGFNQVSP | not soluble |
| MVMEDNESCASRVIFDALPTSQATMDRRERIKMEVFDEVLRRLRQSDIEDAHLPGFEDDLWNHFNRLPARYALDVNVERAEDVLMHKRLLHSAYDPQNRPAIEVHLVQVQPAGISADLDSTSNDAGHSSPTRKSIHPPPAFGSSPNLEALALAASLSQDEDADNSVHNNSLYSRPLHEITFSTEDKPKLLFQLTALLAELGLNIQEAHAFSTTDGYSLDVFVVDGWPYEETERLRISLEKEAAKIELQRPDFSEIIEQLQEIAKEVGEEGEEKKKSSTGLGGGIFAALRRSTTHH | soluble |
| MIKLIATIIVSTLILGSCSTMKDEIEKVPASQYKGQDFQPLAEKSAIAHAKKYREEYEKLGEQFFKDNFSLNVKATNVVGSGDGAEVYVHCDDHDIVFNASIPFDMESIHEEGSMRSNDNGDTMSMMVGTVLSGFEYRANKEKMDNLEKYLKDKEDKYHYTGFTDEAITKTQNIGYQNNYFYITTSSTKLRDYRKHFEPLIKESDDDFKKHMKQLKSKKDTYINTEITTTLFSTLDEYDEKIIRKNTLSMAKEMRKEPSIPHNFTFHLLFSNNKLKINDPNISNNQINEYRVFDHDGFKNLEHHHHHH | not soluble |
| GEKGTTGTGNAALDNIFERKSVRTYLNKGVEKEKIDLMLRAGMSAPSGKDVRPWEFVVVSDRAKLDSMAAALPYAKMLTQARNAIIVCGDSARSFYWYLDCSAAAQNILLAAESMGLGAVWTAAYPYEDRMEVVRKYTHLPENILPLCVIPFGYPATKEQPKQKYDEKKIHYNQY | soluble |
| MKRVLVAMSGGVDSSVAALLLKEAGYEVVGAMMRFWPDLPPPSLEAGKPRAWESCCTPDAAYEARRVADRLGIPFYLLDYREVFEEEIISPFLQDYAQGRTPNPCARCNTFVKFGALLKQARRLGLDYVATGHYVRKEGLALLRGLDPHKDQTYFLWGTPKEALPHLLFPVGGLTKPEVRALAEKAGLPTARRPESQNLCFVAGDLKGFLKERLKPRPGPLVDALTGEVVGEHEGASLYTLGQRKGLGLYKTHLERYVVGVDPERNVVYVGPKEACYFEGLEGEGLNLLAELPEEVEVQVRYRTPPVRAKVESLSPLRLRFAHPVFAVTPGQSAVFYRGERLLGGAVIRRGLYNLAGLEDPRALTFS | soluble |
| MSQWTTVCKLDDILPGTGVCALVEQQQIAVFRPRNDEQVYAISNIDPFAQASVLSRGIVAEHQDDLWVASPLKKQHFRLYDGFCLEDGAYSVAAYDTQVTNGNVQISIADSDVAVDNSQPLPLEHHHHHH | soluble |

— the DeepSol protein solubility set
